We go through 36 sequences from the supplement of paper PMC12764529.

± gives the half width of the 95% confidence interval.

Data set [1] in a line: folding stability dG unfold from trypsin proteolysis; higher = more stable. In outline: (§1)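 Digests were run with trypsin and chymotrypsin at 11 concentrations in threefold dilutions, plus a no-protease condition, on designed mini-proteins in a PA-tagged cDNA display construct. The mini-proteins were under 80 residues, had no cysteine, and were kept only when AlphaFold2 dimer inter-PAE was above 15. After sequencing, Bayesian fitting of the counts gave K50, from which unfolding free energy was derived against a sequence-predicted unfolded-state K50 and a shared folded-state K50, per protease or combined.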

A short description of data set [2]: folding stability dG unfold from chymotrypsin proteolysis; higher = more stable. The essentials:
as §1

Data set [3] can be described thus: folding stability dG unfold (combined trypsin and chymotrypsin); higher = more stable. The essentials:
as §1

As to “SAGMKPGETITIVLPDGTKIEIKILENGEVEIVKIEKKEDGTYKITIRVKVNGKEIEKEITLPPGAKILSAG [r5_394_TrROS_Hall]”, the results for the “folding stability dG unfold” value in data set [1], in data set [2] and in data set [3] were 2.52 ± 0.11 kcal/mol, 2.04 ± 0.12 kcal/mol and 2.16 ± 0.27 kcal/mol, respectively.
On the same counts, the results for “SAGMKPGEVLTVEDIPPGALLRNPKGESLGPVVEVEVRALEDSVEAVVTFPDGSKATVTFPADDIVLDPSAG [r5_850_TrMRF]” are 1.05 ± 0.19 kcal/mol, 0.991 ± 0.21 kcal/mol and 0.987 ± 0.33 kcal/mol.
On the same counts, the results for “SAGMKPIVELLKKEPNPKVILVEVFPTGGEAKIVVKDKVYVFPVKPGPGRRVLVVDPDGKILEVKPFPVSAG [r5_329_TrMRF]” are 0.596 ± 0.15 kcal/mol, 0.709 ± 0.14 kcal/mol and 0.708 ± 0.12 kcal/mol.
Consider “SAGMKPPKIEITIEVVEKDGELYVRVKIKLENGEEIEIVMSLDEVKELLKKLFPEITEIEVEEVRLPPKSAG [r5_25_TrROS_Hall]”, for which the “folding stability dG unfold” value in data set [1] came to 2.39 ± 0.12 kcal/mol; in data set [2], 4.09 ± 0.18 kcal/mol; in data set [3], 3.74 ± 0.5 kcal/mol.
Taken in the same sequence, the figures for “SAGMKPSPEGKTIITIDTSTGKVDVVFPDGKEFTLPFDSSSIEEIIKTIKEKLGYPPEVPFNIDEIEIASAG [r5_923_JUSTAS]” were 2.41 ± 0.1 kcal/mol, 2.239 ± 0.019 kcal/mol and 2.31 ± 0.079 kcal/mol.
On the same counts, the results for “SAGMKTLEKTGSAAKIEEAIAAGKSLEEVFETAGKDGGTSRTLTEPNRTLTFSGETSKPGVATLTTIPESAG [r5_343_JUSTAS]” are -0.662 ± 0.55 kcal/mol, 0.279 ± 0.18 kcal/mol and -0.0165 ± 0.15 kcal/mol.
On the same counts, the results for “SAGMKTVTVKVKISEEEREKLKELGFEIVEEKEDYLVIKVKVPPELSEEELEEAKKEGMTLEEALAKLSAGG [r19_115_TrROS_Hall]” are 2.05 ± 0.12 kcal/mol, 1.71 ± 0.077 kcal/mol and 1.74 ± 0.27 kcal/mol.
Regarding “SAGMKVIEIDVPVSKIEEVKEELEAEAKEKGLNIKFEKLEKLPGNKYKMIVTVTDPTSNEKTIYNINILSAG [r5_41_JUSTAS]”, the “folding stability dG unfold” value in data set [1] worked out at 3.83 ± 0.27 kcal/mol; in data set [2], 4.08 ± 0.051 kcal/mol; in data set [3], 4.06 ± 0.12 kcal/mol.
On the same counts, the results for “SAGMKVTTKTYTLTLTLPDGTRELKVTFTTPPDGYTATITDPNSSKVITLPFSSEEEARSAIEAIAARLSAG [r5_480_JUSTAS]” are 2.48 ± 0.036 kcal/mol, 2.7 ± 0.06 kcal/mol and 2.62 ± 0.092 kcal/mol.
Taken in the same sequence, the figures for “SAGMLDVPDDAEITVLVSLEKVPLPGDSSERVLAGVVKLKVKTLPNGEQVIESAEIKIVSAEELKKAGLSAG [r5_340_TrMRF]” were 1.34 ± 0.038 kcal/mol, 1.6 ± 0.099 kcal/mol and 1.43 ± 0.17 kcal/mol.
Taken in the same sequence, the figures for “SAGMLNIPVDTPEKLLEIVKKLPGPVVVRSTSGTTVTVASLEELKEIAERGVPVELLLPEELPAEERAASAG [r5_677_JUSTAS]” were 0.0824 ± 0.051 kcal/mol, 0.872 ± 0.041 kcal/mol and 0.576 ± 0.067 kcal/mol.
As for “SAGMLSVEQLLEALKEGKEILIVAESPEERERAKRLLAEELGLSEEEIDALLKKAKIKVLPADDPELKKSAG [r5_368_TrROS_Hall]”, the “folding stability dG unfold” value in data set [1] stood at 1.35 ± 0.086 kcal/mol; in data set [2], 2.72 ± 0.16 kcal/mol; in data set [3], 2.46 ± 0.2 kcal/mol.
On the same counts, the results for “SAGMLTLRVVLPKEEAEARARALAEELRRRLGLPPGAKIEVKVVEYDEETGEVVVEVTIEVELPPGVEPSAG [r5_537_TrROS_Hall]” are 4.27 ± 0.14 kcal/mol, 3.64 ± 0.051 kcal/mol and 3.98 ± 0.095 kcal/mol.
Taken in the same sequence, the figures for “SAGMMEIVEVKEVDGRLELKIKDKETGEEFTITVERKEDGELKVTIEMSDEAAERLRELFPEIDRLEIKSAG [r5_933_TrROS_Hall]” were 2.19 ± 0.069 kcal/mol, 3.37 ± 0.19 kcal/mol and 2.93 ± 0.097 kcal/mol.
On the same counts, the results for “SAGMMKIKITLENGEELTIEVSPEEKEKLKEGDIVEIRLEDGTVFKAEVVEVRPPGETVKIRITEAVPSAGG [r19_274_TrROS_Hall]” are 1.67 ± 0.086 kcal/mol, 2.9 ± 0.035 kcal/mol and 2.54 ± 0.16 kcal/mol.
In the case of “SAGMMKVKIELTIVVETKEEAEKLAEELKKALEELGIKEVKVTVEYDKETKKVTVTVEIEIELEPELLSAGG [r19_92_TrROS_Hall]”, the “folding stability dG unfold” value was determined as 2.18 ± 0.21 kcal/mol in data set [1], 2.17 ± 0.1 kcal/mol in data set [2] and 2.17 ± 0.23 kcal/mol in data set [3].
On the same counts, the results for “SAGMNLDNMKIKEIKLQVNPDGSVEVPFEFRFPNGKPMKVSMRVNNGMIEIYYPNGWPITIDIPPGAFSAGG [r19_84_TrROS]” are 1.01 ± 0.15 kcal/mol, 1.48 ± 0.16 kcal/mol and 1.36 ± 0.15 kcal/mol.
Regarding “SAGMPDVPPVPRTFRLEIEIEVPAEDPELARELAEEIREEIRRLGAVRTEVEIDPEPGRVRVRVEFVEGSAG [r5_512_TrMRF]”, the “folding stability dG unfold” value in data set [1] was 1.36 ± 0.018 kcal/mol; in data set [2], 1.56 ± 0.051 kcal/mol; in data set [3] it was 1.48 ± 0.043 kcal/mol.
On the same counts, the results for “SAGMPITVDSEVDPETGTTTYTITMPRGPGEPVTVTIPVTYSDDSVTIEVTASPGVDAAEIKALIEKQSSAG [r5_478_JUSTAS]” are 0.645 ± 0.053 kcal/mol, 0.34 ± 0.22 kcal/mol and 0.597 ± 0.11 kcal/mol.
Taken in the same sequence, the figures for “SAGMPKPVVTPVTLPVNGALITFTVDPEVPLATFTFDEPDVNAVAEEYAKERAAELEKAGIPTKIVPSSAGG [r19_354_JUSTAS]” were 0.3 ± 0.041 kcal/mol, 0.743 ± 0.11 kcal/mol and 0.662 ± 0.16 kcal/mol.
Taken in the same sequence, the figures for “SAGMPLPAEELAERLAKEIEESTDYKVSIEEIKPEGEYVIIKVRVELPEKYKDKGYEEEEFVAIFPGDLSAG [r5_970_TrMRF]” were 0.703 ± 0.073 kcal/mol, 0.806 ± 0.16 kcal/mol and 0.702 ± 0.25 kcal/mol.
“SAGMPLSVEEAIALLRKEIEAIPVPPSVTEIEFEITIPADGRPVKITVKVNEGKLEITVTVGDKPIKIGSAG [r14_199_JUSTAS]”: the “folding stability dG unfold” value turned out to be 1.79 ± 0.14 kcal/mol in data set [1], 2.3 ± 0.07 kcal/mol in data set [2] and 2.17 ± 0.11 kcal/mol in data set [3].
Take “SAGMPLYRIRVHPDIPDRIEITEVDAEDLPPGAVLKIRFRETGETVEVPLSDLDELLALPGIEEVELVSAGG [r19_302_TrROS_Hall]”: the “folding stability dG unfold” value was 0.305 ± 0.077 kcal/mol in data set [1], 1.11 ± 0.13 kcal/mol in data set [2] and 0.841 ± 0.12 kcal/mol in data set [3].
Taken in the same sequence, the figures for “SAGMPPTTVEVKVTVVKTPEGYEVVAEVVTPDRTETLTIPPHLGLEEAKARLEAVLAERGLTLVDWTLESAG [r5_305_JUSTAS]” were 2.71 ± 0.047 kcal/mol, 2.65 ± 0.041 kcal/mol and 2.65 ± 0.057 kcal/mol.
As for “SAGMPSVTVTPVTVTVEGTAPPDLTEEELRADPTYTRTVEIDATVTLYPETGTVTVTLPGGVTVTLPSPSAG [r5_701_JUSTAS]”, the “folding stability dG unfold” value in data set [1] stood at 0.432 ± 0.075 kcal/mol; in data set [2], 0.929 ± 0.031 kcal/mol; in data set [3], 0.79 ± 0.095 kcal/mol.
Taken in the same sequence, the figures for “SAGMPVITTTEELPGGLTVTTTTYPPGDTTTTVTSPEGNVTTTTTTTTPTPTPTTTTTTTTTTTPVPPASAG [r5_944_JUSTAS]” were 1.56 ± 0.14 kcal/mol, 1.26 ± 0.099 kcal/mol and 1.44 ± 0.26 kcal/mol.
On the same counts, the results for “SAGMSMSVSVTKDPNSNSITIKVTMPVEPDAVLDLPIKVEVPEKEYEMTVEVTLSPDGLASMTGTITLPSAG [r5_596_JUSTAS]” are 2.74 ± 0.15 kcal/mol, 2.04 ± 0.056 kcal/mol and 2.41 ± 0.18 kcal/mol.
Taken in the same sequence, the figures for “SAGMTEVAKEIADTLAEQFPPGYKIDDIKVQPLPDNMFRVPITIKRRDPNGKPRGPRQIEIWIPPEQFSAGG [r19_28_TrROS]” were 0.755 ± 0.053 kcal/mol, 0.21 ± 0.17 kcal/mol and 0.532 ± 0.11 kcal/mol.
For the sequence “SAGMTFEVRYPLPPGQTHKEAREEVKDMVESIAREFMPEGWKIEPKDIDVDPDKGWIEYKVDIEIPPGMSAG [r5_146_TrROS]”, the “folding stability dG unfold” value in data set [1] is 1.19 ± 0.12 kcal/mol; in data set [2], 1.94 ± 0.12 kcal/mol; in data set [3], 1.72 ± 0.18 kcal/mol.
On to “SAGMTIEIEIPASTSAEEAVERVEAIVEEVRKAGKKFELTIKTSDPALAAAVRAALEAAGVPVTVEVDSAGG [r19_268_JUSTAS]”, for which the figures for the “folding stability dG unfold” value in data set [1], in data set [2] and in data set [3] were 4.07 ± 0.12 kcal/mol, 2.48 ± 0.033 kcal/mol and 3.28 ± 0.066 kcal/mol, respectively.
Taken in the same sequence, the figures for “SAGMTIIKIEFPDGSKATVDPTNPSTMTITDPNGNTTVLNLTGVEEAKKQLIETLKKETGLPVKKVEVESAG [r5_119_JUSTAS]” were 0.493 ± 0.045 kcal/mol, 1.38 ± 0.049 kcal/mol and 1.14 ± 0.088 kcal/mol.
Taken in the same sequence, the figures for “SAGMTIILVGPNAKEAVEKVAEELRKRDVGPPVTVLVLEPGGKPVLRARVERRPPDPDRFVVTVEPVESAGG [r19_85_TrMRF]” were 0.689 ± 0.079 kcal/mol, 1.41 ± 0.11 kcal/mol and 1.27 ± 0.098 kcal/mol.
On to “SAGMTITIPAPPSLSPEEAVALAIERVKEEYPELLTPGSEVNIVVIREDPATGTSQTLTVTVPFPEGIFSAG [r5_916_JUSTAS]”, for which the “folding stability dG unfold” value in data set [1] amounted to 1.98 ± 0.045 kcal/mol; in data set [2], 1.57 ± 0.044 kcal/mol; in data set [3], 1.79 ± 0.086 kcal/mol.
Taken in the same sequence, the figures for “SAGMTITTTTPAEAAALAEELAKKNPVLNVTITVVDPETGTVTTIPFAVPAPLPRPYFDPETGEVTLEGSAG [r5_870_TrMRF]” were 1.1 ± 0.033 kcal/mol, 0.193 ± 0.18 kcal/mol and 0.779 ± 0.11 kcal/mol.
On the same counts, the results for “SAGMTITVKPGEKVKVTIKVEVFDENGKLIKKEEKEVEITVKEGDEITIKIKLDKPVKVKIEIKIEKKSAGG [r19_295_TrROS_Hall]” are 2.67 ± 0.17 kcal/mol, 2.01 ± 0.15 kcal/mol and 2.29 ± 0.25 kcal/mol.
Taken in the same sequence, the figures for “SAGMTIVIGAPPELSLEEAVEKAIEAVEALFPDKLKPGSKIKVIVRVYDPETGSVDEVTVEIDVPPGALSAG [r5_916_TrMRF]” were 3.35 ± 0.22 kcal/mol, 1.99 ± 0.11 kcal/mol and 2.65 ± 0.1 kcal/mol.
